Experiments:
type 1 collagen = type 1 collagen (UniProt P02452); test: ELISA
von Willebrand factor = von Willebrand factor (UniProt P04275 764-2813); test: ELISA

type 1 collagen, sequence (P02452 23-1218, chain 1 of 2): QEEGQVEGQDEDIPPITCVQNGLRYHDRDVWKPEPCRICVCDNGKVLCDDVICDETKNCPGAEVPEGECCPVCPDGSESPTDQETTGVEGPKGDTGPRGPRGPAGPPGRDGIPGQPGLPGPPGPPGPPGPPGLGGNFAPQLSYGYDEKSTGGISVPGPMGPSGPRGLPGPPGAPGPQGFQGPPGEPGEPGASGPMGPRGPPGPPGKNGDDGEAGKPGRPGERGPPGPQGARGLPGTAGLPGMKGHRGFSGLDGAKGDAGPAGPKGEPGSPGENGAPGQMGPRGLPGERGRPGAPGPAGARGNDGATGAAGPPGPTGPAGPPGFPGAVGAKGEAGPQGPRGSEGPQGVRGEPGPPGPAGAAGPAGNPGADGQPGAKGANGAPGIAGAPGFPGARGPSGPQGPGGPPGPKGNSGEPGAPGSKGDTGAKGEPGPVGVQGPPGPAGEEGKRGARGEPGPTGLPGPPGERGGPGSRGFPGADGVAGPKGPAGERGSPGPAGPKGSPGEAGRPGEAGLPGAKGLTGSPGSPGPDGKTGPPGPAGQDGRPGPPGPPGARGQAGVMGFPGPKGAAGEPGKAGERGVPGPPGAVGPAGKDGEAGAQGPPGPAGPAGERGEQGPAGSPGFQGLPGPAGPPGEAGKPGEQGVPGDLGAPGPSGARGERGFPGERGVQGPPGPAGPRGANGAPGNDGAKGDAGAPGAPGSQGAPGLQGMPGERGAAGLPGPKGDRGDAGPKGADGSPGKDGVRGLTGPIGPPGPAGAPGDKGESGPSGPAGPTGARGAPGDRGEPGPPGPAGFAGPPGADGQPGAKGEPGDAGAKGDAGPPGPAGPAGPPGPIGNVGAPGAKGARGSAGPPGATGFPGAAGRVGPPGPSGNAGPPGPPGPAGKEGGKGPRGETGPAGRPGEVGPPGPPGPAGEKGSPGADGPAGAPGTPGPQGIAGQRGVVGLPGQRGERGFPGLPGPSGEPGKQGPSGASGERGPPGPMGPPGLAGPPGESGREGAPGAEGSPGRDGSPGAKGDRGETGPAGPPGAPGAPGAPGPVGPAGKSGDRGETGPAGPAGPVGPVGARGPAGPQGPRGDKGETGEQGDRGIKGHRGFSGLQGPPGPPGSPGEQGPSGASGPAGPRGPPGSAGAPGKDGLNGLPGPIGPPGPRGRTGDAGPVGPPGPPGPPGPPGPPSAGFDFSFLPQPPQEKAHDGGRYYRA
type 1 collagen, sequence (P08123 80-1119, chain 2 of 2, further chain): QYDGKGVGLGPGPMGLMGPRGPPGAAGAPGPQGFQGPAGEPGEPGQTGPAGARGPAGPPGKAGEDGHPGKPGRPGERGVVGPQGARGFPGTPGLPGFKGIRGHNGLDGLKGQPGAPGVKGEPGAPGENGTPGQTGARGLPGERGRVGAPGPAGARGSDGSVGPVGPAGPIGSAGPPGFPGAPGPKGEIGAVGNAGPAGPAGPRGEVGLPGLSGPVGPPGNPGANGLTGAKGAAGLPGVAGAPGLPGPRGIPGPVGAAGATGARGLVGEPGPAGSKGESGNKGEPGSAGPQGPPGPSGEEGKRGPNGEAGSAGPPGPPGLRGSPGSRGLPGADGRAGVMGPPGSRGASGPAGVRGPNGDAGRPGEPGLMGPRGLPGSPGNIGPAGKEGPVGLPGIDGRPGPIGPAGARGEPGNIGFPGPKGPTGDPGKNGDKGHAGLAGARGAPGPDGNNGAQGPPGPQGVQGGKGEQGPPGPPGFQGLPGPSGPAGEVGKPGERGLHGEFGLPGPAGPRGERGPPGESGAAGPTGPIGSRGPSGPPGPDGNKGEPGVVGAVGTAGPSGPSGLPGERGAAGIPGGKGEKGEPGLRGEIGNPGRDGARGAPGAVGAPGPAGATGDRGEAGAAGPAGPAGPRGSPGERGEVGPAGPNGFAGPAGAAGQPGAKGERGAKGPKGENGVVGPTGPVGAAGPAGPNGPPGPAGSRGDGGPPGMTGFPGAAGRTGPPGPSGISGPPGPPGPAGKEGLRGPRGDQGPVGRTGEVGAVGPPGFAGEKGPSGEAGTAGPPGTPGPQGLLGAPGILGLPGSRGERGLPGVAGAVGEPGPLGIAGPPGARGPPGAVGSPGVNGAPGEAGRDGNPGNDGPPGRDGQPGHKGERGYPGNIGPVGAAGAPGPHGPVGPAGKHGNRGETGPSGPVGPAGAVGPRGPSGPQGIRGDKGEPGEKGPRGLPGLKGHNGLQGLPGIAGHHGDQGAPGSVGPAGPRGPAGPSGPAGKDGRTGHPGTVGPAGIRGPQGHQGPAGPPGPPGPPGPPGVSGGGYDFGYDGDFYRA

B1: Recombinant human full-length ADAMTS13 (enzyme, UniProt Q76LX8 75-1427, looked up)
chain: AAGGILHLELLVAVGPDVFQAHQEDTERYVLTNLNIGAELLRDPSLGAQFRVHLVKMVILTEPEGAPNITANLTSSLLSVCGWSQTINPEDDTDPGHADLVLYITRFDLELPDGNRQVRGVTQLGGACSPTWSCLITEDTGFDLGVTIAHEIGHSFGLEHDGAPGSGCGPSGHVMASDGAAPRAGLAWSPCSRRQLLSLLSAGRARCVWDPPRPQPGSAGHPPDAQPGLYYSANEQCRVAFGPKAVACTFAREHLDMCQALSCHTDPLDQSSCSRLLVPLLDGTECGVEKWCSKGRCRSLVELTPIAAVHGRWSSWGPRSPCSRSCGGGVVTRRRQCNNPRPAFGGRACVGADLQAEMCNTQACEKTQLEFMSQQCARTDGQPLRSSPGGASFYHWGAAVPHSQGDALCRHMCRAIGESFIMKRGDSFLDGTRCMPSGPREDGTLSLCVSGSCRTFGCDGRMDSQQVWDRCQVCGGDNSTCSPRKGSFTAGRAREYVTFLTVTPNLTSVYIANHRPLFTHLAVRIGGRYVVAGKMSISPNTTYPSLLEDGRVEYRVALTEDRLPRLEEIRIWGPLQEDADIQVYRRYGEEYGNLTRPDITFTYFQPKPRQAWVWAAVRGPCSVSCGAGLRWVNYSCLDQARKELVETVQCQGSQQPPAWPEACVLEPCPPYWAVGDFGPCSASCGGGLRERPVRCVEAQGSLLKTLPPARCRAGAQQPAVALETCNPQPCPARWEVSEPSSCTSAGGAGLALENETCVPGADGLEAPVTEGPGSVDEKLPAPEPCVGMSCPPGWGHLDATSAGEKAPSPWGSIRTGAQAAHVWTPAAGSCSVSCGRGLMELRFLCMDSALRVPVQEELCGLASKPGSRREVCQAVPCPARWQYKLAACSVSCGRGVVRRILYCARAHGEDDGEEILLDTQCQGLPRPEPQEACSLEPCPPRWKVMSLGPCSASCGLGTARRSVACVQLDQGQDVEVDEAACAALVRPEASVPCLIADCTYRWHVGTWMECSVSCGDGIQRRRDTCLGPQAQAPVPADFCQHLPKPVTVRGCWAGPCVGQGTPSLVPHEEAAAPGRTTATPAGASLEWSQARGLLFSPAPQPRRLLPGPQENSVQSSACGRQHLEPTGTIDMRGPGQADCAVAIGRPLGEVVTLRVLESSLNCSAGDMLLLWGRLTWRKMCRKLLDMTFSSKTNTLVVRQRCGRPGGGVLLRYGSQLAPETFYRECDMQLFGPWGEIVSPSLSPATSNAGGCRLFINVAPHARIAIHALATNMGAGTEGANASYILIRDTHSLRTTAFHGQQVLYWESESSQAEMEFSEGFLKAQASLRGQYWTLQSWVPEMQDPQSWKGKEGT
Type 1 collagen
  Kd: 257 nM
Von Willebrand factor
  Kd: 8.2 ± 1.6 nM
